Measured values as given in patent US20030186258.

Molecular target: fusion protein PNP20aa-hGH (UniProt P01241)
Sequence (P01241 27-217): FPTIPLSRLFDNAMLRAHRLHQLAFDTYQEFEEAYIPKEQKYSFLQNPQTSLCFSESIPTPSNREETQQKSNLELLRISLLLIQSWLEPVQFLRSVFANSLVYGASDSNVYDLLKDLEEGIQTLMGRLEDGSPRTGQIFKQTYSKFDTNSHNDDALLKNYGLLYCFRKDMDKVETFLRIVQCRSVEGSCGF

ss-Kex1 protease immobilised on Eupergit C250L resin
digestion of the fused protein (SDS-PAGE), 15 hours: almost complete: digestion is obtained after 15 hours
